This is an account of results in patent US20180155451A1 (published 2018).

T1: FcγRIIa R (human, UniProt P12318 34-217)
T1 construct: extracellular domain; also called FcgRIIa R; FcγRIIa type R
T1 sequence (looked up): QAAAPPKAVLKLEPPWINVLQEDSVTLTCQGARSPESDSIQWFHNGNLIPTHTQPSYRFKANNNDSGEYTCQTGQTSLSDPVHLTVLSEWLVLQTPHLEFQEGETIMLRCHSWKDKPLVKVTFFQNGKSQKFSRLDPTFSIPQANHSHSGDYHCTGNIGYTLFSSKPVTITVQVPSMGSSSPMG

T2: FcγRIIa R (human, UniProt P12318 34-217)
T2 construct: extracellular domain; Soluble extracellular domain with C-terminal His tag, expressed in FreeStyle293 cells; also called FcgRIIa R; FcγRIIa type R; not shown: His tag attached to the C terminus
T2 sequence (looked up): T1 sequence (looked up)

T3: FcγRIIb (human, UniProt P31994 43-217)
T3 construct: extracellular domain; also called FcgRIIb
T3 sequence (looked up): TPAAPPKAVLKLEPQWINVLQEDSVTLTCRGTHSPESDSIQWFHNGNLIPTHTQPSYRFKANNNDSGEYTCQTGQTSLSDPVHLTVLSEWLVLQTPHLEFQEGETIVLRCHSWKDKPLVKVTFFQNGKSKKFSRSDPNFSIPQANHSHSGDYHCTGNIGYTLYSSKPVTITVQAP

B1: GpH7-A5/GpH7-B3 variant P329_11K/GpL16-k0 (antibody, human IgG1, kappa)
heavy 1: not shown
heavy 2: not shown
light: DIVMTQSPLSLPVTPGEPASISCQASESLVHSNRNTYLHWYLQKPGQSPQLLIYKVSNRFSGVPDRFSGSGSGTDFTLKISRVEAEDVGVYYCSQNTHVPPTFGQGTKVEIERTVAAPSVFIFPPSDEQLKSGTASVVCLLNNFYPREAKVQWKVDNALQSGNSQESVTEQDSKDSTYSLSSTLTLSKADYEKHKVYACEVTHQGLSSPVTKSFNRGEC
notes: He Ab; IgG1; mutation in one H chain only; also called GpH7-A5/GpH7-B13/GpL16-k0
B2: GpH7-A5/GpH7-B3 variant P329_18N/GpL16-k0 (antibody, human IgG1, kappa)
heavy 1: not shown
heavy 2: not shown
light: B1 light
notes: He Ab; IgG1; mutation in one H chain only
B3: GpH7-A5/GpH7-B3 variant S298_10E/GpL16-k0 (antibody, human IgG1, kappa)
heavy 1: not shown
heavy 2: not shown
light: B1 light
notes: as for B2
B4: GpH7-A5/GpH7-B3 variant S298_15Y/GpL16-k0 (antibody, human IgG1, kappa)
heavy 1: not shown
heavy 2: not shown
light: B1 light
notes: as for B2
B5: GpH7-A5/GpH7-B3 variant P329_16H/GpL16-k0 (antibody, human IgG1, kappa)
heavy 1: not shown
heavy 2: not shown
light: B1 light
notes: as for B2
B6: GpH7-A5/GpH7-B3 variant Y300_05P/GpL16-k0 (antibody, human IgG1, kappa)
heavy 1: not shown
heavy 2: not shown
light: B1 light
notes: as for B2
B7: GpH7-A5/GpH7-B3 variant S298_16H/GpL16-k0 (antibody, human IgG1, kappa)
heavy 1: not shown
heavy 2: not shown
light: B1 light
notes: as for B2
B8: GpH7-A5/GpH7-B3 variant P331_01G/GpL16-k0 (antibody, human IgG1, kappa)
heavy 1: not shown
heavy 2: not shown
light: B1 light
notes: as for B2
B9: GpH7-A5/GpH7-B3 variant S298_11K/GpL16-k0 (antibody, human IgG1, kappa)
heavy 1: not shown
heavy 2: not shown
light: B1 light
notes: as for B2
B10: GpH7-A5/GpH7-B3 variant P329_13S/GpL16-k0 (antibody, human IgG1, kappa)
heavy 1: not shown
heavy 2: not shown
light: B1 light
notes: as for B2
B11: GpH7-A5/GpH7-B3 variant P329_12R/GpL16-k0 (antibody, human IgG1, kappa)
heavy 1: not shown
heavy 2: not shown
light: B1 light
notes: He Ab; IgG1; mutation in one H chain only; also called GpH7-A5/GpH7-B12/GpL16-k0
B12: GpH7-A5/GpH7-B3 variant P329_15Y/GpL16-k0 (antibody, human IgG1, kappa)
heavy 1: not shown
heavy 2: not shown
light: B1 light
notes: as for B2
B13: GpH7-A5/GpH7-B3 variant S298_14T/GpL16-k0 (antibody, human IgG1, kappa)
heavy 1: not shown
heavy 2: not shown
light: B1 light
notes: as for B2
B14: GpH7-A5/GpH7-B3 variant P329_19Q/GpL16-k0 (antibody, human IgG1, kappa)
heavy 1: not shown
heavy 2: not shown
light: B1 light
notes: as for B2
B15: GpH7-A5/GpH7-B3 variant S298_20W/GpL16-k0 (antibody, human IgG1, kappa)
heavy 1: not shown
heavy 2: not shown
light: B1 light
notes: as for B2
B16: GpH7-A5/GpH7-B3 variant S298_19Q/GpL16-k0 (antibody, human IgG1, kappa)
heavy 1: not shown
heavy 2: not shown
light: B1 light
notes: as for B2
B17: GpH7-A5/GpH7-B3 variant Y300_18N/GpL16-k0 (antibody, human IgG1, kappa)
heavy 1: not shown
heavy 2: not shown
light: B1 light
notes: as for B2
B18: GpH7-A5/GpH7-B3 variant Y300_12R/GpL16-k0 (antibody, human IgG1, kappa)
heavy 1: not shown
heavy 2: not shown
light: B1 light
notes: as for B2
B19: GpH7-A5/GpH7-B3 variant P329_14T/GpL16-k0 (antibody, human IgG1, kappa)
heavy 1: not shown
heavy 2: not shown
light: B1 light
notes: as for B2
B20: GpH7-A5/GpH7-B3 variant S298_12R/GpL16-k0 (antibody, human IgG1, kappa)
heavy 1: not shown
heavy 2: not shown
light: B1 light
notes: as for B2
B21: GpH7-A5/GpH7-B3 variant S298_18N/GpL16-k0 (antibody, human IgG1, kappa)
heavy 1: not shown
heavy 2: not shown
light: B1 light
notes: as for B2
B22: GpH7-B3 variant T335_15Y/GpL16-k0 (antibody, human IgG1, kappa)
heavy: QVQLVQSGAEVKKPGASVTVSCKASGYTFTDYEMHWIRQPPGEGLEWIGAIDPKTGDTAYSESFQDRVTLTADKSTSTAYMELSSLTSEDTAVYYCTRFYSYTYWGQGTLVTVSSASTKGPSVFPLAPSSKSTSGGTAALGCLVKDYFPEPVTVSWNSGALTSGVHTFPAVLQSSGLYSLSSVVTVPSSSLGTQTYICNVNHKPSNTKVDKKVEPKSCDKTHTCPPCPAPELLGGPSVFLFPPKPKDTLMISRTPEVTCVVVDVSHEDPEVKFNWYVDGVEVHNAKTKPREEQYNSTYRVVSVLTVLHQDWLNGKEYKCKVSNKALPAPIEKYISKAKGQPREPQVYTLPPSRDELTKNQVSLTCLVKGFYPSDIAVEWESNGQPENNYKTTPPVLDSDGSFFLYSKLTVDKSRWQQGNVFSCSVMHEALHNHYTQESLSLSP
light: B1 light
notes: homodimerized; mutation in both H chains; also called Ho Ab
B23: GpH7-B3 variant K326_06M/GpL16-k0 (antibody, human IgG1, kappa)
heavy: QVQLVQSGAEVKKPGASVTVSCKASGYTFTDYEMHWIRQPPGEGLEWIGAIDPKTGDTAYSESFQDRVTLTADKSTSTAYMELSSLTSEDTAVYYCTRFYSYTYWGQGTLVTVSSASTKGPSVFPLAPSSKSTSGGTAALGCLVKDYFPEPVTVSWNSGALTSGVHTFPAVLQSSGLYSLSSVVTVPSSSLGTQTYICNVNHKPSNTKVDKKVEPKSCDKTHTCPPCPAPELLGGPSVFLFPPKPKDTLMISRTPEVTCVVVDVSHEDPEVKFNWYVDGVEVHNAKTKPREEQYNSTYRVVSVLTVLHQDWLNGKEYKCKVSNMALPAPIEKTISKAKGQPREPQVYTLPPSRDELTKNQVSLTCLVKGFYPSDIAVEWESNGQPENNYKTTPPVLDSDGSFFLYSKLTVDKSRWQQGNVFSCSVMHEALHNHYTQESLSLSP
light: B1 light
notes: as for B22
B24: GpH7-B3 variant I332_15Y/GpL16-k0 (antibody, human IgG1, kappa)
heavy: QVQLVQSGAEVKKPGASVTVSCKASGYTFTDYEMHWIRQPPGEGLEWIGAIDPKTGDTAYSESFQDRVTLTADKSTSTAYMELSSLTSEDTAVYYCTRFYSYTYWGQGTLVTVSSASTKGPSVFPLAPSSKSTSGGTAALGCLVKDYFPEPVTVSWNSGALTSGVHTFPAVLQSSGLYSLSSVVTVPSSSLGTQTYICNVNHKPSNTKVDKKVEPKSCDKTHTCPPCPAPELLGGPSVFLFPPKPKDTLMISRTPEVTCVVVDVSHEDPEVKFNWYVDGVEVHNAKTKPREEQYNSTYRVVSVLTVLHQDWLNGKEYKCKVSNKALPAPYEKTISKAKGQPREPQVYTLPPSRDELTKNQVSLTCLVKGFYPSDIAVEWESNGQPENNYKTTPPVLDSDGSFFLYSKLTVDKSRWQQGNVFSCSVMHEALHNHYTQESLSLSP
light: B1 light
notes: as for B22
B25: GpH7-B3 variant G236_09D/GpL16-k0 (antibody, human IgG1, kappa)
heavy: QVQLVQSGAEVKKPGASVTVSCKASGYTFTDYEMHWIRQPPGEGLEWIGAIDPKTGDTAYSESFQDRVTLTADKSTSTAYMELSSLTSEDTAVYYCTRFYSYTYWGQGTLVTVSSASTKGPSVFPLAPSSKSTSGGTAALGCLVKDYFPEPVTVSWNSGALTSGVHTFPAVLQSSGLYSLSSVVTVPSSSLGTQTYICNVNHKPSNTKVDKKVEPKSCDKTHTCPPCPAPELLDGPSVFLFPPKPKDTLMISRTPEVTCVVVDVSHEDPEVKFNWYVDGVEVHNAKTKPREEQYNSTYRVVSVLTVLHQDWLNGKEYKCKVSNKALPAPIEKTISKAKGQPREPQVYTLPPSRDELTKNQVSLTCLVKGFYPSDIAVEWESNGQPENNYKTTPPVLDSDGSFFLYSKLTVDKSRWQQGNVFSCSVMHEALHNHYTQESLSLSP
light: B1 light
notes: as for B22
B26: GpH7-B3 variant K326_10E/GpL16-k0 (antibody, human IgG1, kappa)
heavy: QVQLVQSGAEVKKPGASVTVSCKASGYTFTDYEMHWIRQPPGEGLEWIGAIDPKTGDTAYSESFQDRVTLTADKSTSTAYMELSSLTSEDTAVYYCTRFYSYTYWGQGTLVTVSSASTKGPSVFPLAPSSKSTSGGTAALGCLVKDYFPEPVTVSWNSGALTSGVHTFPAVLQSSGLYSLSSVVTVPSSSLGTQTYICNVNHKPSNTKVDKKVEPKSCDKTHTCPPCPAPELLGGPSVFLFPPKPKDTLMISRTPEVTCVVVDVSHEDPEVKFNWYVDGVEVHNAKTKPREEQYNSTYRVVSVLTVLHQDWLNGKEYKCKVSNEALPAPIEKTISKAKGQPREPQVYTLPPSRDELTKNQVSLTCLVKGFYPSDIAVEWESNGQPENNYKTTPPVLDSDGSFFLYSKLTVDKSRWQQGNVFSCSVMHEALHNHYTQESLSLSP
light: B1 light
notes: as for B22
B27: GpH7-B3 variant H268_09D/GpL16-k0 (antibody, human IgG1, kappa)
heavy: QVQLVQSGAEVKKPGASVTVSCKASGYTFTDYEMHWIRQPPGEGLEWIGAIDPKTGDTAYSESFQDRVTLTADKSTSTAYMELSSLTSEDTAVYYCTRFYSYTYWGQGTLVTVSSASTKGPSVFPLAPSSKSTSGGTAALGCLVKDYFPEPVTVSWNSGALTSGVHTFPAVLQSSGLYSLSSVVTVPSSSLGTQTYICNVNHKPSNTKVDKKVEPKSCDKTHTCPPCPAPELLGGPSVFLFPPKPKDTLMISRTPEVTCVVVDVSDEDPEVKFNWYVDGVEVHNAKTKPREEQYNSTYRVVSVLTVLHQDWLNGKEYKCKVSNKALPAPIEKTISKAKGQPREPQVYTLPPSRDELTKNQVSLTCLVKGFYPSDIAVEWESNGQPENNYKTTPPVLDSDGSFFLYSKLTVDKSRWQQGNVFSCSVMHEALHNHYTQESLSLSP
light: B1 light
notes: as for B22
B28: GpH7-B3 variant H268_10E/GpL16-k0 (antibody, human IgG1, kappa)
heavy: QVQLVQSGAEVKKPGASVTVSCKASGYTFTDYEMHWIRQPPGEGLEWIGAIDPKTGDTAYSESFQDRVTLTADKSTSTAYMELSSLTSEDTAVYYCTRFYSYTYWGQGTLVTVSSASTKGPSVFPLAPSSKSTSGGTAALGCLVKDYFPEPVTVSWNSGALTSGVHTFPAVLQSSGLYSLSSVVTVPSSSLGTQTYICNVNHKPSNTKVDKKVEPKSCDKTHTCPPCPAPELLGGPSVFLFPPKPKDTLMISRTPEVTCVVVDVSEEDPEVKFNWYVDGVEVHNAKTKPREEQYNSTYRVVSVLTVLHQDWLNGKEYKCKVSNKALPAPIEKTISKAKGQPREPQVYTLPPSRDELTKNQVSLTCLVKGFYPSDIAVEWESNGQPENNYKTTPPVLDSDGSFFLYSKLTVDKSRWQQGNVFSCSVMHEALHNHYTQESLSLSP
light: B1 light
notes: as for B22
B29: GpH7-B3 variant I332_04F/GpL16-k0 (antibody, human IgG1, kappa)
heavy: not shown
light: B1 light
notes: as for B22
B30: GpH7-B3 variant H268_18N/GpL16-k0 (antibody, human IgG1, kappa)
heavy: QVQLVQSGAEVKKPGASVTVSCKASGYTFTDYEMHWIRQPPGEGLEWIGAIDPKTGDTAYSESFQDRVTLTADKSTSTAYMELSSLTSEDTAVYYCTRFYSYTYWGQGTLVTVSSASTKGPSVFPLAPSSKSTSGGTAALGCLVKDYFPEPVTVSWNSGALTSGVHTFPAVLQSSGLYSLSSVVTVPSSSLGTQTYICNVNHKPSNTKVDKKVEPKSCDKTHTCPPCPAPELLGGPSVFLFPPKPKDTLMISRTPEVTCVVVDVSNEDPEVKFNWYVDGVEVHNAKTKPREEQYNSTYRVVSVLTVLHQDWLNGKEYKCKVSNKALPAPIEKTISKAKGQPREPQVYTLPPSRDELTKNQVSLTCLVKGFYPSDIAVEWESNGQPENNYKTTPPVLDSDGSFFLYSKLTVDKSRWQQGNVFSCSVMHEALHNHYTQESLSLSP
light: B1 light
notes: as for B22
B31: GpH7-B3 variant H268_13S/GpL16-k0 (antibody, human IgG1, kappa)
heavy: not shown
light: B1 light
notes: as for B22
B32: GpH7-B3 variant G236_10E/GpL16-k0 (antibody, human IgG1, kappa)
heavy: not shown
light: B1 light
notes: as for B22
B33: GpH7-B3 variant I332_09D/GpL16-k0 (antibody, human IgG1, kappa)
heavy: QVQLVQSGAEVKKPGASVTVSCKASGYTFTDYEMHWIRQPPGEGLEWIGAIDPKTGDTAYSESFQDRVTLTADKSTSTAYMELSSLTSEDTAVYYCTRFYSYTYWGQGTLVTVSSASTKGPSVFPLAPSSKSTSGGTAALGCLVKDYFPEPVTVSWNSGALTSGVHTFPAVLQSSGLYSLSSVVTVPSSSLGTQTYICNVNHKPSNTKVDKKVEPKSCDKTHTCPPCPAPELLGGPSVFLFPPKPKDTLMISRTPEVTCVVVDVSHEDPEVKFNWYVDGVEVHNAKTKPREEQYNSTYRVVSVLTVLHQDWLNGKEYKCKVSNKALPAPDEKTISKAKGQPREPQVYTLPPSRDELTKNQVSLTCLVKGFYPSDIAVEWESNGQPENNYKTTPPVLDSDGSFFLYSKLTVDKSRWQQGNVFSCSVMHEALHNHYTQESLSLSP
light: B1 light
notes: as for B22
B34: GpH7-B3 variant K326_09D/GpL16-k0 (antibody, human IgG1, kappa)
heavy: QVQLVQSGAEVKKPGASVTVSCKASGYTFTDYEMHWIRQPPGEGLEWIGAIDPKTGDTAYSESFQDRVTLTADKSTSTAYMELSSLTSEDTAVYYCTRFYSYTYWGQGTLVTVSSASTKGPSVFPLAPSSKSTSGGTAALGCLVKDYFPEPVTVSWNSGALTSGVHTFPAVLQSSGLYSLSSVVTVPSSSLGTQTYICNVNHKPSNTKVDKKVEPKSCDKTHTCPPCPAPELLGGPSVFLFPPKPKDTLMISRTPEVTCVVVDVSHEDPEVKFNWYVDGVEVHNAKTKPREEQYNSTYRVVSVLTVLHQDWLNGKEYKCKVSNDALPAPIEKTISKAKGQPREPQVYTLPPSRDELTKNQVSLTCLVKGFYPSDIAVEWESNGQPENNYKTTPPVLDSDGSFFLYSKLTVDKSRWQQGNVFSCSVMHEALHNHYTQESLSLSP
light: B1 light
notes: as for B22
B35: GpH7-B3 variant I332_10E/GpL16-k0 (antibody, human IgG1, kappa)
heavy: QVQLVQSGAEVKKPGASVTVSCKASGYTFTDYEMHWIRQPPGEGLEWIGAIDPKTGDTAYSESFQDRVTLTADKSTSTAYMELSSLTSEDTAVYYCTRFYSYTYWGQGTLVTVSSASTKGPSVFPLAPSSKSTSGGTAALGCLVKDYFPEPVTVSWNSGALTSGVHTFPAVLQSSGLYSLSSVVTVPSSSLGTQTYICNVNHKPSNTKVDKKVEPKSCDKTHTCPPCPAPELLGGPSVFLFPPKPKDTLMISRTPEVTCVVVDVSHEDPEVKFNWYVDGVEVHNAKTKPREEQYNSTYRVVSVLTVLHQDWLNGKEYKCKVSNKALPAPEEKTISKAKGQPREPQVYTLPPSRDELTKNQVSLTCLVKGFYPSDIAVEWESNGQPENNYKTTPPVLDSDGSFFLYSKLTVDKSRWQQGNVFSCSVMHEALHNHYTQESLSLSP
light: B1 light
notes: homodimerized; mutation in both H chains; also called Ho Ab; GpH7-B3-22-10E/GpL16-k0

The target in the first assay is T1, FcγRIIa R. As to the kind of experiment: He/Con_2aR divided by He/Con_2b (FcγRIIa R over FcγRIIb); SPR (Biacore). Background: In SPR one partner is held on a chip, and binding of the other changes the refractive index at the surface.
For B1, the “IIaR/IIb (He_2aR/2b)” value was 1.79 ratio.
Same read-out and setting: the same measure for B2: 1.51 ratio; for B3: 1.37 ratio; for B4: 1.29 ratio.
The same measure, in the same setting: the same measure for B5: 1.45 ratio; for B6: 1.47 ratio; for B7: 1.39 ratio.
The same measure, in the same setting: the result for B8 reads 1.34 ratio; that for B9, 1.55 ratio.
B10: the “IIaR/IIb (He_2aR/2b)” value is 1.5 ratio.
Same read-out and setting: the same measure for B11: 1.66 ratio.
On the same count and under the same terms, the result for B12 reads 1.49 ratio.
For the molecule B13, the “IIaR/IIb (He_2aR/2b)” value turned out to be 1.26 ratio.
On the same count and under the same terms, the same measure for B14: 1.34 ratio; for B15: 1.35 ratio; for B16: 1.3 ratio.
Same read-out and setting: the same measure for B17: 1.21 ratio; for B18: 1.34 ratio.
For the molecule B19, the “IIaR/IIb (He_2aR/2b)” value amounted to 1.51 ratio.
On the same count and under the same terms, the result for B20 reads 1.48 ratio.
Still for that read-out and setting: the same measure for B21: 1.41 ratio.

The next assay addresses T2, FcγRIIa R. As to the kind of experiment: SPR (Biacore), antibody captured via antigen peptide, FcγRIIa R as analyte; homodimerized antibody. On the procedure: Analysis of interaction between objective antibody and the FcγR was carried out using Biacore T100 (GE Healthcare). HBS-EP+ (GE Healthcare) was used as the running buffer, and the measurement temperature was set to 25° C. Chips produced by immobilizing the antigen peptide by the amine coupling method to a Series S Sencor Chip CM5 (GE Healthcare), or alternatively, chips produced by allowing preliminarily biotinylated antigen peptides to interact with and immobilize onto a Series S Sensor Chip SA (certified) (GE Healthcare) were used. Antibodies of interest were captured onto an antigen peptide-immobilized chip, and allowed to interact to each FcγR diluted with running buffer. To regenerate and repeatedly use the chip, the antibodies captured on the chip were washed off by reacting 10 mM glycine-HCl, pH 1.5.
For the molecule B22, the Ho/Con_2aR was 107 % of control (GpH7-B3/GpL16-k0 = 100).
Same read-out and setting: the result for B23 reads 143 % of control (GpH7-B3/GpL16-k0 = 100).
As to B24, the Ho/Con_2aR is 111 % of control (GpH7-B3/GpL16-k0 = 100).
The same measure, in the same setting: the same measure for B25: 107 % of control (GpH7-B3/GpL16-k0 = 100).
For the molecule B26, the Ho/Con_2aR is 156 % of control (GpH7-B3/GpL16-k0 = 100).
On to B27, for which the Ho/Con_2aR is 157 % of control (GpH7-B3/GpL16-k0 = 100).
On the same count and under the same terms, the same measure for B28: 154 % of control (GpH7-B3/GpL16-k0 = 100); for B29: 109 % of control (GpH7-B3/GpL16-k0 = 100).
Same read-out and setting: the result for B30 reads 134 % of control (GpH7-B3/GpL16-k0 = 100); that for B31, 135 % of control (GpH7-B3/GpL16-k0 = 100); that for B32, 140 % of control (GpH7-B3/GpL16-k0 = 100).
For the molecule B33, the Ho/Con_2aR was 127 % of control (GpH7-B3/GpL16-k0 = 100).
Turning to B34, the Ho/Con_2aR was 158 % of control (GpH7-B3/GpL16-k0 = 100).
Still for that read-out and setting: the same measure for B35: 123 % of control (GpH7-B3/GpL16-k0 = 100).

The target of a further assay is T1, FcγRIIa R. As to the kind of experiment: SPR (Biacore), captured antibody, FcγR analyte; binding relative to GpH7-A5/GpH7-B3/GpL16-k0 = 100.
For B1, the “He/Con_2aR (IIaR binding)” value worked out at 30.2 control=100.
For B2, the “He/Con_2aR (IIaR binding)” value was 61.2 control=100.
B3: the “He/Con_2aR (IIaR binding)” value was 65.1 control=100.
In the case of B4, the “He/Con_2aR (IIaR binding)” value worked out at 79.1 control=100.
On the same count and under the same terms, the same measure for B5: 56.7 control=100; for B6: 10.8 control=100; for B7: 88.5 control=100.
On the same count and under the same terms, the same measure for B8: 61 control=100; for B9: 95.1 control=100.
As for B10, the “He/Con_2aR (IIaR binding)” value amounted to 61.5 control=100.
On the same count and under the same terms, the same measure for B11: 29.3 control=100; for B12: 67.9 control=100; for B13: 98.5 control=100.
Turning to B14, the “He/Con_2aR (IIaR binding)” value is 41.1 control=100.
On to B15, for which the “He/Con_2aR (IIaR binding)” value was 55.4 control=100.
Same read-out and setting: the result for B16 reads 95 control=100; that for B17, 100 control=100.
Same read-out and setting: the result for B18 reads 55.1 control=100; that for B19, 57.3 control=100; that for B20, 85.3 control=100.
For the molecule B21, the “He/Con_2aR (IIaR binding)” value was determined as 68 control=100.

Another assay addresses T3, FcγRIIb. The assay is described as above.
In the case of B1, the “He/Con_2b (IIb binding)” value was determined as 16.9 control=100.
Same read-out and setting: the same measure for B2: 40.4 control=100; for B3: 47.6 control=100.
Still for that read-out and setting: the result for B4 reads 61.4 control=100; that for B5, 39.1 control=100; that for B6, 7.3 control=100.
As to B7, the “He/Con_2b (IIb binding)” value was 63.5 control=100.
Still for that read-out and setting: the same measure for B8: 45.4 control=100; for B9: 61.3 control=100.
The same measure, in the same setting: the same measure for B10: 41 control=100; for B11: 17.6 control=100; for B12: 45.7 control=100.
Still for that read-out and setting: the result for B13 reads 77.9 control=100.
Take B14: the “He/Con_2b (IIb binding)” value was 30.7 control=100.
Still for that read-out and setting: the result for B15 reads 41.1 control=100; that for B16, 73.3 control=100.
As to B17, the “He/Con_2b (IIb binding)” value worked out at 82.7 control=100.
Same read-out and setting: the same measure for B18: 41.2 control=100; for B19: 37.9 control=100.
Same read-out and setting: the same measure for B20: 57.8 control=100; for B21: 48.1 control=100.
